# Laboratory results published in patent US20100022402A1, “Methods and Compositions for the In Vitro High-Throughput Detection of Protein/Protein Interactions” (priority 2004, published 2010).
# Residue numbers refer to the chain shown, from its start. Where no end group is shown, it is not given here.
# T1: λD-Acid display phage (gpD fused to acidic aptamer [Gly-Glu]4) (bacteriophage lambda), P03712
# T1 chain: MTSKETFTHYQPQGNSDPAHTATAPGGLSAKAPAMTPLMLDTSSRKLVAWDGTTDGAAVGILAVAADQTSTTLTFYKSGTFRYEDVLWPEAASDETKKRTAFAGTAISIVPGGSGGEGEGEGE
# T2: λD-Base display phage (gpD fused to basic aptamer [Gly-Arg]4) (bacteriophage lambda), P03712
# T2 chain: T1 chain with E117R, E119R, E121R, E123R
# Experiments:
# [1] = target: T1, λD-Acid display phage (gpD fused to …); test: competition: free peptide titrates λD-Acid:λD-Base co-infection (MOI 0.0025), loss of double resistant multilysogens
# [2] = target: T1, λD-Acid display phage (gpD fused to …); test: apparent KD, calculated as the concentration of free peptide that results in an IC50 in the λD-Acid:λD-Base co-infection assay
# [3] = target: T2, λD-Base display phage (gpD fused to …); test: competition: free peptide titrates λD-Acid:λD-Base co-infection (MOI 0.0025), loss of double resistant multilysogens
# [4] = target: T2, λD-Base display phage (gpD fused to …); test: apparent KD, calculated as the concentration of free peptide that results in an IC50 in the λD-Acid:λD-Base co-infection assay
IC50 [1] [nM],Kd [2] [nM],IC50 [3] [nM],Kd [4] [nM],Binder
10,10,,,GRGRGRGR (not fully specified) [Basic Aptamer (free synthetic peptide [Gly-Arg]4)]
,,10,10,GEGEGEGE (not fully specified) [Acidic Aptamer (free synthetic peptide [Gly-Glu]4)]
